Test results: patent JP2020188737A

Experiments:
[1] = molecular target: ヒトFcγRIIIaを固定化した担体(分離剤)を詰めたカラム(FcR9_Fカラム、WO2018/150973号の実施例5に記載); assay: FcγRIIIa affinity chromatography (FcR9_F column), peak area share; antibody from 9-day jar fermenter batch culture with 1 mM L-glutamine
[2] = molecular target: ヒトFcγRIIIaを固定化した担体(分離剤)を詰めたカラム(FcR9_Fカラム、WO2018/150973号の実施例5に記載); assay: FcγRIIIa affinity chromatography (FcR9_F column), peak area share; antibody from 9-day jar fermenter batch culture with 10 mM L-glutamine

B1: 抗インターロイキン6レセプター(IL−6R)抗体 (antibody, human IgG1, V domains shown)
VH: QVQLQESGPGLVRPSQTLSLTCTVSGYSITSDHAWSWVRQPPGRGLEWIGYISYSGITTYNPSLKSRVTMLRDTSKNQFSLRLSSVTAADTAVYYCARSLARTTAMDYWGQGSLVTVSS
VL: DIQMTQSPSSLSASVGDRVTITCRASQDISSYLNWYQQKPGKAPKLLIYYTSRLHSGVPSRFSGSGSGTDFTFTISSLQPEDIATYYCQQGNTLPYTFGQGTKVEIK
- ピーク1(結合力が弱いピーク)の面積割合 [1]: 25%
- ピーク3(結合力が強いピーク)の面積割合 [1]: 36%
- ピーク1(結合力が弱いピーク)の面積割合 [2]: 42.3%
- ピーク3(結合力が強いピーク)の面積割合 [2]: 22.1%
